Assay results as given in publication PMC8621594, “Physicochemical and Biological Characterization of rhC1INH Expressed in CHO Cells” (Pharmaceuticals, 2021).

T1: blood coagulation factor XIIa (human, UniProt P00748 20-615)
T1 sequence (looked up): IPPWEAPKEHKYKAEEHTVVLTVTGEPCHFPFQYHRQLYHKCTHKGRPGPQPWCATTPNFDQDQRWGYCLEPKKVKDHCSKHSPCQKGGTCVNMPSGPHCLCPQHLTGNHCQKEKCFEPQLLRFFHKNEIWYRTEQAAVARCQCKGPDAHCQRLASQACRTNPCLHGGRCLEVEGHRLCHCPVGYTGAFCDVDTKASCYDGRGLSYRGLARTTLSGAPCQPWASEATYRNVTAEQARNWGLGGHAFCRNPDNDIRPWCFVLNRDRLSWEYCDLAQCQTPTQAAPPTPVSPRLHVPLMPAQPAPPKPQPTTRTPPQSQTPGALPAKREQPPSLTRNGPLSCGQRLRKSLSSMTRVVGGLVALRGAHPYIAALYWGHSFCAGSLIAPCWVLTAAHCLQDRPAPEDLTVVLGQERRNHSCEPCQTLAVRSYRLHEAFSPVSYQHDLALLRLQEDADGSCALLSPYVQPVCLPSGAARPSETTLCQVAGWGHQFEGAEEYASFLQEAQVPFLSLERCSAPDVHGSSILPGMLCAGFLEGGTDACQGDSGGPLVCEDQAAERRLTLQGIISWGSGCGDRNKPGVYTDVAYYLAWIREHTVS

B1: Ruconest^® (conestat alfa), human recombinant C1 inhibitor purified from the milk of transgenic rabbits (natural protein, UniProt P05155 23-500, looked up)
chain: NPNATSSSSQDPESLQDRGEGKVATTVISKMLFVEPILEVSSLPTTNSTTNSATKITANTTDEPTTQPTTEPTTQPTIQPTQPTTQLPTDSPTQPTTGSFCPGPVTLCSDLESHSTEAVLGDALVDFSLKLYHAFSAMKKVETNMAFSPFSIASLLTQVLLGAGENTKTNLESILSYPKDFTCVHQALKGFTTKGVTSVSQIFHSPDLAIRDTFVNASRTLYSSSPRVLSNNSDANLELINTWVAKNTNNKISRLLDSLPSDTRLVLLNAIYLSAKWKTTFDPKKTRMEPFHFKNSVIKVPMMNSKKYPVAHFIDQTLKAKVGQLQLSHNLSLVILVPQNLKHRLEDMEQALSPSVFKAIMEKLEMSKFQPTLLTLPRIKVTTSQDMLSIMEKLEFFDFSYDLNLCGLTEDPDLQVSAMQHQTVLELTETGVEAAAASAISVARTLLVFEVQQPFLFVLWDQQHKFPVFMGRVYDPRA
modifications: glycosylated; 8.0 ± 0.6 mol Neu5Ac/mol protein
B2: recombinant human C1 esterase inhibitor (rhC1INH) from Chinese hamster ovary (CHO) cells (natural protein, UniProt P05155 23-500, looked up)
chain: B1 chain
modifications: heavily glycosylated: six occupied N- and more than 12 O- sites of glycosylation; about 20 mol Neu5Ac/mol protein
notes: mass of the totally deglycosylated protein 52,846 Da (theoretical 52,849 Da); By LC-MS 71% of the deglycosylated product is the full structure; source: genetically engineered CHO cells, purified

Assays:
human C1s = human C1s (human); assay: cell-based or functional assay
[1] = target: T1, blood coagulation factor XIIa; assay: cell-based or functional assay
[2] = target: T1, blood coagulation factor XIIa; assay: BLI; Octet QKe; each protease diluted to 10 ug/mL in 10 mM sodium acetate pH 6.0 and covalently immobilised on amino reactive sensors (AR2G); C1 inhibitor at 11, 5.5 and 2.8 uM in triplicates; 24 °C, 250 rpm; only the association rate constant calculated because complex formation is irreversible; settings: both partners purified

| Binder | IC50 of the inhibition of human serum complement (lysis of chicken erythrocytes), Ruconest® 0.0076 to 15.6 IU/mL; printed as activity against human C1-esterase in the blood serum (human C1s) [IU/mL] | inhibitory activity toward factor XIIa, chromogenic substrate S-2302, inhibitor 18 to 0.14 µM, relative to Berinert® (100%) [1] [%] | kon [2] [M⁻¹ s⁻¹] |
| --- | --- | --- | --- |
| B1 | 1.66 |  |  |
| B2 |  | 115 | 3260 |
